Experimental data: patent US20220275059A1 (HARBOUR ANTIBODIES, published 2022)
Changes are numbered by the printed parent chain. Values joined by “and” are separate entries in the source; they are usually repeats but may differ in a detail not shown here. Identical values can stand only once.

T1: MERS-S1^A domain (MERS-CoV EMC isolate, UniProt K9N5Q8 19-357)
T1 sequence: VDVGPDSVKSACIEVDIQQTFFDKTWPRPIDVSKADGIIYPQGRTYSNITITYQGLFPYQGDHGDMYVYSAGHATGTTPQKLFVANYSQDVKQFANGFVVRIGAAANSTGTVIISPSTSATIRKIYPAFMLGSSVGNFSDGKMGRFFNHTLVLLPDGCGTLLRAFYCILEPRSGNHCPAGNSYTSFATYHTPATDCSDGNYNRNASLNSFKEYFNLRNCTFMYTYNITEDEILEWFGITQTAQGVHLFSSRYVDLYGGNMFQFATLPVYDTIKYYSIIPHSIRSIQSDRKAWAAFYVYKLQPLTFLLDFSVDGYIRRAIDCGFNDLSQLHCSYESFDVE

B1: 1.17f10 (antibody, V domains shown)
VH: QVQLVESGGGVVQPGRSLRLSCAASGFTFSKYGMHWVRQAPGKGLEWVANIGYDGSDKYYADSVKGRFTISRDNSKNMLYLQMNSLRAEDTAVYFCARGGWIDDYYYGLDVWGQGTTVTVSS
VL: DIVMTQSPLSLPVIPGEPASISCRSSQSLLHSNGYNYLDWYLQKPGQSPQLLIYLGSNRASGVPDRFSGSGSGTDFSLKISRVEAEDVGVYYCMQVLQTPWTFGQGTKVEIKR
B2: 1.12g2 (antibody, V domains shown)
VH: B1 VH with K31S, N50V, G52C, A61T, K65R, M78T, A88V, V93M, L109M
VL: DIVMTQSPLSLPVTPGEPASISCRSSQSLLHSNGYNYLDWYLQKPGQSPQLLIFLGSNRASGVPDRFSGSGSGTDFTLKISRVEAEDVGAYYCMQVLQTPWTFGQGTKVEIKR
B3: 1.5d6 (antibody, V domains shown)
VH: B1 VH with K31R, N50V, D57N, M78T, Y80S, F95Y, I102N
VL: DIVMTQSPLSLPVIPGEPASISCRSSQSLLHSNGYNYLDWYLQKPGQSPQLLIYLGSNRASGVPDRFSGSGSGTDFTLKISIVEAEDAGVYYCMQVLQTPWTFGQGTKVEIKR
B4: 1G3 heavy chain-only antibody (antibody, V domains shown)
VH: EVQLVESGGGVVQPGRSLRLSCAASGFTFSSYGMHWVRQAPGKGLEWVAVIWYDGSNKYYADSVKGRFTISRDNSKNTLYLQMNSLRAEDTAVYYCARDERIFGVPDAFDIRGQGTMVTVSS
B5: 4.6e10 (antibody, V domains shown)
VH: QVQLVESGGGVVQPGRSLRLSCTASGFTFTYYGLHWVRQAPGKGLEWVAVIWYDGSNQYYADSVQGRFTISRDNSKNTLYLQMNSLRAEDTAVYYCAREGLGAVAGYYFDYWGQGTLVTVSA
VL: DIQMTQSPSSLSASVRDRVTITCRASQIISNYLNWYQQKPGKAPKLLIYAASSLQSGVPSRFSGSGSGTDFTLTISSLQPEDFATYFCQQSYSTPFAFGPGTKVDIKR
B6: 1E10 heavy chain-only antibody (antibody, V domains shown)
VH: EVQLLESGGGWVQPGGSLRLSCAASGFTFSTNAMSWVRQAPGKGLEWVSGISGSGGSTDYADSVKGRFTISRDNSKNTLYLQMNSLRAEDTAVYYCAPRIAVAPDALDIWGQGTMVTVSS
B7: 7.7g6 (antibody, V domains shown)
VH: QVQLVQTGAEVKKPGSSVKVSCKASGGTFSIYAISWVRQAPRQGLEWMGGIIPIFGTANYAQKFQGRVTITADKSTNTAYMELSRLRSEDTAVYYCAREGDDVLVPTSRGFFDYWGQGTLVTVSS
VL: not shown
B8: 1.2g5 (antibody, V domains shown)
VH: QVQLVQSGAEVKKPGSSVKVSCKASGGTFSTYAISWVRQAPGQGLEWMGGIIPIFGTANYAQKFQGRVTIIADKSTNTAYMDLSSLRSEDTAVYYCAREGNLGYDVVTGYSYFVYWGQGTLVTVSS
VL: EIVLTQSPGTLSLSPGERATLSCRASQSVSSSYLAWYQQKPDQVPRLLIYGTSSRATGIPDRFSGSGSGTDFTLTISRLEPEDFAVYYCQQYGRSLTFGGGTKVEIKR
B9: 1.13a9 (antibody, V domains shown)
VH: EVQLVESGGGLVQPGGSLRLSCAASGFTFSNYWMTWVRQAPGKGLEWVANIKEDGSEKYYVDSVKGRFTLSRDNAKNSLYLQMNSLRAEDTAVYYCAKEGALLWFGVLRPRAFDIWGQGTMVTVSS
VL: B3 VL with I14T, K44N, Q50H, G56A, I82R, E86A, A88V, V96A, W101Y, V109L
B10: 1.10f3 (antibody, V domains shown)
VH: QVQLVESGGGVVQPGRSLRLSCKASGFTFRGYGMHWVRQAPGKGLEWVTVIWHDASNKYYVDSVKGRFSISRDNSKNTLYLQMNSLRAEDTAVYYCARDAGLSFDIWGQGTMVTVSS
VL: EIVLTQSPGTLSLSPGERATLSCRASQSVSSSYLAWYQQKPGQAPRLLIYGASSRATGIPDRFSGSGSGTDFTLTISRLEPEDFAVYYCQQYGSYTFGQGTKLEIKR
B11: 1.8e5 (antibody, V domains shown)
VH: QVQLQESGPGLVKPSGTLSLTCAVSGGSISSNRWWTWVRRSPGKGLEWIGEIYHSGSTNYNPSLKSRVTISVDRSKNQFSLKLSSVTAADTAVYYCASLTLIWFGEKAFDIWGQGTMVTVSS
VL: EIVMTQSPATLSVSPGERATLSCGASPSVSTNLAWYQQRPGQAPRLLIYGISTRAAGIPARFSGTGSGTEFTLTISSLQSEDFALYYCQQYNNWPYTFGQGTKLEIKR
B12: 1H5 heavy chain-only antibody (antibody, V domains shown)
VH: EVQLVESGGGLVQPGGSLRLSCAASGFTFSSYWMLWVRQAPGEGLVWVSRIDSDGSNTTYADSVKGRFTVSRDNAKNTLYLQMNSLRAEDTAVYYCARSGYGYAFDIWGQGTMVTVSS
B13: 1.6f9 (antibody, V domains shown)
VH: QVQLVQSGAEVKKPGSSVKVSCKASGGAFSAYVITWVRQAPGQGLEWMGGIIPVFGTAHYAQKFQGRVTITADKSTSTAFMELSSLRSEDTAVYYCAREGDIEVVLAGRGYFDYWGQGTLVTVSS
VL: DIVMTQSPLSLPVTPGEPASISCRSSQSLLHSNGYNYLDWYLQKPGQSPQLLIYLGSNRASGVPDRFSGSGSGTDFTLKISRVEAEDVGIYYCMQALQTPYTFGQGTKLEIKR
B14: 2.6h11 (antibody, V domains shown)
VH: EVQLVESGGGLVQPGRSLRLSCTASGFTFGDYVMSWFRQAPGKGLEWVGFIRSKAHGGTTEYAASVNGRFSISRDDSKTIAYLQMNSLKSEDTAVYYCTWLRNDYYYGMDVWGLGTTVTVSS
VL: B3 VL with V3M, I14T, S28R, N36S, L38V, N58D, I82R, A88V, V96T
B15: 3.5g6 (antibody, V domains shown)
VH: QVQLQQSGPGLVKPSQTLSLTCAISGHSVSSNSADWNWIRQSPSRGLEWLGRTYCRSKCYNDYAVSVKSRITINPDTSKNQFSLQLNPVTPEDTAVYYCARSLGSGTYPFDSWGQGTLVTVSS
VL: DIQMTQSPSSLSASVGDRVTITCRASQRISRFLNWYQQTPGKAPKFLIYAASSLQSGVPSRFSGSGSGTDFTLTISSLQPEDFATYYCQQSYSTPLTFGGGTTVEIKR

Tests used:
SARS-CoV spike protein = SARS-CoV spike protein (SARS-CoV, UniProt P59594 15-1182); assay: ELISA on SARS Secto
[1] = molecular target: T2, MERS-CoV S S1 subunit (MERS-S1) (MERS-CoV EMC isolate, UniProt K9N5Q8 19-748); assay: affinity measurement of HCAbs (method not told)
[2] = molecular target: T3, MERS-S on pseudotyped VSV particles (MERS-S carrying a 16-a.a. cytoplasmic tail truncation) (MERS-CoV, UniProt K9N5Q8 18-1337); assay: cell-based or functional assay
[3] = molecular target: T3, MERS-S on pseudotyped VSV particles …; assay: cell-based or functional assay; remark: listed apart in the source
[4] = molecular target: T2, MERS-CoV S S1 subunit (MERS-S1); assay: ForteBio Octet / BLI (FIG. 2F and 3A)
MERS-S1^A domain = molecular target: T1, MERS-S1^A domain; assay: ELISA on coated MERS-S1^A, OD450 [D]
[5] = molecular target: T2, MERS-CoV S S1 subunit (MERS-S1); assay: ForteBio Octet kinetic measurement (FIG. 3A)
[6] = molecular target: T2, MERS-CoV S S1 subunit (MERS-S1); assay: ELISA on coated MERS-S1, OD450 [D]
[7] = molecular target: MERS-S1^B domain (receptor binding domain) (MERS-CoV EMC isolate, UniProt K9N5Q8 358-588); assay: ELISA on coated MERS-S1^B, OD450 [D]
peptide 10 = assay: ELISA on coated overlapping MERS-S2 peptides, A450 [D00032 Fig. 14(B]
peptide 11 = assay: as above
[8] = molecular target: MERS-S2 ectodomain (MERS-S2^ecto) (MERS-CoV EMC isolate, UniProt K9N5Q8 752-1262)

Row | Binder | binding result (SARS-CoV spike protein) | IC50, neutralization of MERS-S pseudovirus infectivity (H2L2) [2] | IC50, neutralization of MERS-S pseudovirus infectivity (human IgG1) [2] | IC50, neutralisation of MERS-S VSV pseudovirus on Vero cells [3] | binding result (MERS-S1^A domain) | further results
1 | B1 | no binding (tested: 25.00 (no unit printed)) |  |  |  |  | 
2 | B2 | no binding (tested: 25.00 (no unit printed)) |  |  |  |  | 
3 | B3 | no binding (tested: 25.00 (no unit printed)) |  |  |  |  | 
4 | B4 |  |  |  |  |  | Kd [1]: 21.7 nM
5 | B5 |  | ~0.0313 µg/mL | ~0.07 µg/mL | 0.048 µg/mL | no binding (tested: about 5x10^5 ng/ml) | IC50, MERS-S pseudovirus infection (human IgG1) [2]: 0.32 nM; Kd [4]: ~0.36 nM
6 | B6 |  |  |  |  |  | Kd [1]: 1 nM
7 | B7 |  | ~0.00011 µg/mL | ~0.02 µg/mL | 0.001 µg/ml and 0.007 nM | no binding (tested: about 5x10^5 ng/ml) | Kd [5]: ~0.36 nM; EC50 (read off the curve) [6]: ~0.02 µg/mL; EC50 (read off the curve) [7]: ~0.02 µg/mL
8 | B8 |  | ~0.00062 µg/mL | ~0.007 µg/mL | 0.002 µg/ml and 0.013 nM | no binding (tested: about 5x10^5 ng/ml) | Kd [5]: ~0.081 nM
9 | B9 | no binding (tested: 25.00 (no unit printed)) |  |  |  |  | 
10 | B10 |  |  |  | > 10 µg/ml and > 66.7 nM |  | Kd [5]: ~4.8 nM; EC50 (read off the curve) [6]: ~0.1 µg/mL; EC50 (read off the curve) (MERS-S1^A domain): ~0.07 µg/mL; binding result [7]: no binding (tested: about 5x10^5 ng/ml)
11 | B11 |  | ~0.0903 µg/mL | ~2.59 µg/mL | 1.5 µg/mL | no binding (tested: about 5x10^5 ng/ml) | IC50, MERS-S pseudovirus infection (human IgG1) [2]: 10 nM; Kd [4]: ~0.32 nM
12 | B12 |  |  |  |  |  | Kd [1]: 10.9 nM
13 | B13 |  | ~0.00038 µg/mL | ~0.019 µg/mL | 0.006 µg/ml and 0.04 nM | no binding (tested: about 5x10^5 ng/ml) | Kd [5]: ~0.53 nM
14 | B14 | no binding (tested: 25.00 (no unit printed)) |  |  |  |  | binding result (peptide 10): no binding; binding result (peptide 11): no binding
15 | B15 | no binding (tested: 25.00 (no unit printed)) |  |  | 2.49 µg/mL | no binding (tested: about 5x10^5 ng/ml) | EC50 (read off the curve) [8]: ~0.2 µg/mL; IC50, MERS-S pseudovirus (human IgG1) [2]: 16.6 nM; binding result [6]: no binding (tested: about 5x10^5 ng/ml); binding result [7]: no binding (tested: about 5x10^5 ng/ml)
